Data as given in PMC3462793, “Erioflorin Stabilizes the Tumor Suppressor Pdcd4 by Inhibiting Its Interaction with the E3-ligase β-TrCP1” (PLoS ONE, 2012).

Target: T1, Programmed cell death 4 (Pdcd4), endogenous in HEK293 cells (human (endogenous in HEK293), UniProt Q53EL6 1-469)
T1 sequence (looked up): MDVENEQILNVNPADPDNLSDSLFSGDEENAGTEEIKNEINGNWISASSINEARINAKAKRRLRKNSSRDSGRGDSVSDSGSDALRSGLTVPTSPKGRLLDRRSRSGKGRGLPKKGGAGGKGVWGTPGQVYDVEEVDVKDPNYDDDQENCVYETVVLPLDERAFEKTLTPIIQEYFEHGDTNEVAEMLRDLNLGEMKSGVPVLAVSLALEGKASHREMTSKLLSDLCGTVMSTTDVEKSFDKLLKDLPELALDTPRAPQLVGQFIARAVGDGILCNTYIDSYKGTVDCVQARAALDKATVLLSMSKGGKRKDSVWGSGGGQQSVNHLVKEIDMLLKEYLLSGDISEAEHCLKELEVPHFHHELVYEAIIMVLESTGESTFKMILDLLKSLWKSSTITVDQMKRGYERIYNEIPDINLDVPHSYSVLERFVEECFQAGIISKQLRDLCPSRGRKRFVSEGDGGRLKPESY
Assay: cell-based or functional assay

B1: β-transducin repeat-containing protein 1 (β-TrCP1), overexpressed in HEK293 cells (natural protein, UniProt Q9Y297 1-605, looked up)
chain: MDPAEAVLQEKALKFMCSMPRSLWLGCSSLADSMPSLRCLYNPGTGALTAFQNSSEREDCNNGEPPRKIIPEKNSLRQTYNSCARLCLNQETVCLASTAMKTENCVAKTKLANGTSSMIVPKQRKLSASYEKEKELCVKYFEQWSESDQVEFVEHLISQMCHYQHGHINSYLKPMLQRDFITALPARGLDHIAENILSYLDAKSLCAAELVCKEWYRVTSDGMLWKKLIERMVRTDSLWRGLAERRGWGQYLFKNKPPDGNAPPNSFYRALYPKIIQDIETIESNWRCGRHSLQRIHCRSETSKGVYCLQYDDQKIVSGLRDNTIKIWDKNTLECKRILTGHTGSVLCLQYDERVIITGSSDSTVRVWDVNTGEMLNTLIHHCEAVLHLRFNNGMMVTCSKDRSIAVWDMASPTDITLRRVLVGHRAAVNVVDFDDKYIVSASGDRTIKVWNTSTCEFVRTLNGHKRGIACLQYRDRLVVSGSSDNTIRLWDIECGACLRVLEGHEELVRCIRFDNKRIVSGAYDGKIKVWDLVAALDPRAPAGTLCLRTLVEHSGRVFRLQFDEFQIVSSSHDDTILIWDFLNDPAAQAEPPRSPSRTYTYISR
In the case of B1, the “endogenous Pdcd4 protein level (western densitometry, relative to the DMSO control) in HEK293 cells treated 8 h with TPA (10 nM) and erioflorin (0.625–5 µM)” value is reported as 121 % of DMSO control.
